Source: US20150344888A1 (published 2015)

T1: UCHL3 (UniProt P15374 1-230)
T1 chain: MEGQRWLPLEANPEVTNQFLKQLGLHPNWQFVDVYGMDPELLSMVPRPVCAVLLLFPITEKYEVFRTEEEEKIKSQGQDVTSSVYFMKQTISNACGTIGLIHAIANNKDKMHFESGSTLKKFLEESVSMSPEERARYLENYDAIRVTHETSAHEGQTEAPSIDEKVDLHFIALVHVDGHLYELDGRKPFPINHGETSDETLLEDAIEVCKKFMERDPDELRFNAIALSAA

T2: USP2 (UniProt O75604 259-605)
T2 chain: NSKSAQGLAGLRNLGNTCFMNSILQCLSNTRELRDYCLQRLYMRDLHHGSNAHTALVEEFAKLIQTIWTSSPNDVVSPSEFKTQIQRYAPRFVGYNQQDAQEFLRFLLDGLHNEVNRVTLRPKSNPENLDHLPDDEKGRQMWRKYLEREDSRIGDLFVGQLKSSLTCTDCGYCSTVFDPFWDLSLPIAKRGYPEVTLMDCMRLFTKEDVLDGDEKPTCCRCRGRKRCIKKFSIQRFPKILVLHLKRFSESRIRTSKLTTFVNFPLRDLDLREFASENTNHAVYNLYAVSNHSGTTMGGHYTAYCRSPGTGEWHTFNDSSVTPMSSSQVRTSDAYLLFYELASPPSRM

T3: USP30 (active enzyme in the ubiquitin-AMC assay) (UniProt Q70CQ3 57-517)
T3 chain: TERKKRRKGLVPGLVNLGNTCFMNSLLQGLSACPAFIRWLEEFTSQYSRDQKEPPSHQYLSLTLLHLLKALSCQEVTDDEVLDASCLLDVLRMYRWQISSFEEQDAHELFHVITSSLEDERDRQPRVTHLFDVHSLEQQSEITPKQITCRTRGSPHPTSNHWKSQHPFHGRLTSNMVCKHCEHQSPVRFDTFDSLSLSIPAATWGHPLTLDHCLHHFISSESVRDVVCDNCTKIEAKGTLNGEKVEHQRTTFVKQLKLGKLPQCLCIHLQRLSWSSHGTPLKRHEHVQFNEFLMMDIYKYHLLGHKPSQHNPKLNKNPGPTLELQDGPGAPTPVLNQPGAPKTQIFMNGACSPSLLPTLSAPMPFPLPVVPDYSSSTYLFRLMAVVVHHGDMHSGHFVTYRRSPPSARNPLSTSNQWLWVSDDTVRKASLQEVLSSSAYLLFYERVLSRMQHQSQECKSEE

T4: USP5 (UniProt P45974 1-858)
T4 chain: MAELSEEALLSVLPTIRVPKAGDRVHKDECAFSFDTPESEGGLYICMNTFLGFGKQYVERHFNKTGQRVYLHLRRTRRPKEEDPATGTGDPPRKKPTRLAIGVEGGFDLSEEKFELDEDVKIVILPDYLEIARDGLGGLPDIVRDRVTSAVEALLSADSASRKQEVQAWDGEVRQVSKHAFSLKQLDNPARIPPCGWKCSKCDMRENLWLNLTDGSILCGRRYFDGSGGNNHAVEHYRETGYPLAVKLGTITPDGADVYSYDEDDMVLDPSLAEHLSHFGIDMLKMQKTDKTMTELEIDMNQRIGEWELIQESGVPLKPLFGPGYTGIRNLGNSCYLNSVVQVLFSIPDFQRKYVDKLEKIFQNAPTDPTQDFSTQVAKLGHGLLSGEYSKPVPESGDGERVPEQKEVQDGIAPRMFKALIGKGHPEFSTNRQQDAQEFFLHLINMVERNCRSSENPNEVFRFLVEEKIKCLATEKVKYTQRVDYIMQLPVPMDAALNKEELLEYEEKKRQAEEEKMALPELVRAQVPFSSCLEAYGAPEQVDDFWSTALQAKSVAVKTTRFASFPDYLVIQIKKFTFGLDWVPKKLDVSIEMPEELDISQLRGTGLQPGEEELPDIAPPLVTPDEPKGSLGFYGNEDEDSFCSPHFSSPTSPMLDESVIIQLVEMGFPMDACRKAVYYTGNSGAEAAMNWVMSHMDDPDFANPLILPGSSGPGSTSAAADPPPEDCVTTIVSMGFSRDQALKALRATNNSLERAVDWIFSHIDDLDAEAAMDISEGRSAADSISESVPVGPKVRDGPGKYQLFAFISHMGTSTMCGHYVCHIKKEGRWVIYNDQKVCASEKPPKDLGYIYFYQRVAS


What was measured:
Experiment in all cases: ubiquitin-AMC enzyme inhibition
UCHL3 = target: T1, UCHL3
USP2 = target: T2, USP2
[1] = target: T3, USP30 (active enzyme in the …)
USP5 = target: T4, USP5
USP7 = target: USP7

Binder	IC50 (UCHL3) [µM]	IC50 (USP2) [µM]	IC50 [1] [µM]	IC50 (USP5) [µM]	IC50 (USP7) [µM]
VSRCYIFWNEMFCDVE [peptide USP30-8]	194	~200	121	42.9	
VSRCYIFWNEMFCDVE [pep8]					31.7
